B1: Intraflagellar transport protein 27 homolog (Homo sapiens), Q9BW83 (parent)
chain: MVKLAAKCILAGDPAVGKTALAQIFRSDGAHFQKSYTLTTGMDLVVKTVPVPDTGDSVELFIFDSAGKELFSEMLDKLWESPNVLCLVYDVTNEESFNNCSKWLEKARSQAPGISLPGVLVGNKTDLAGRRAVDSAEARAWALGQGLECFETSVKEMENFEAPFHCLAKQFHQLYREKVEVFRALA
partner: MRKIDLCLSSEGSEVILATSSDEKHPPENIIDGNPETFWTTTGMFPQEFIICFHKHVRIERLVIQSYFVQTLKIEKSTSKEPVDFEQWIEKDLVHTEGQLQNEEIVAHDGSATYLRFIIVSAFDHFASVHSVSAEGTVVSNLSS
B2: Keratin, type II cytoskeletal 79 (Homo sapiens), Q5XKE5 (parent)
chain: MRSSVSRQTYSTKGGFSSNSASGGSGSQARTSFSSVTVSRSSGSGGGAHCGPGTGGFGSRSLYNLGGHKSISVSVAGGALLGRALGGFGFGSRAFMGQGAGRQTFGPACPPGGIQEVTVNQSLLTPLHVEIDPEIQRVRTQEREQIKTLNNKFASFIDKVRFLEQQNKVLETKWALLQEQGQNLGVTRNNLEPLFEAYLGSMRSTLDRLQSERGRLDSELRNVQDLVEDFKNKYEDEINKHTAAENEFVVLKKDVDAAYMGRMDLHGKVGTLTQEIDFLQQLYEMELSQVQTHVSNTNVVLSMDNNRNLDLDSIIAEVKAQYELIAQRSRAEAEAWYQTKYEELQVTAGKHGDNLRDTKNEIAELTRTIQRLQGEADAAKKQCQQLQTAIAEAEQRGELALKDAQKKLGDLDVALHQAKEDLTRLLRDYQELMNVKLALDVEIATYRKLLESEESRMSGECPSAVSISVTGNSTTVCGGGAASFGGGISLGGSGGATKGGFSTNVGYSTVKGGPVSAGTSILRKTTTVKTSSQRY
B3: UV excision repair protein RAD23 homolog B (Homo sapiens), P54727 (parent)
chain: MQVTLKTLQQQTFKIDIDPEETVKALKEKIESEKGKDAFPVAGQKLIYAGKILNDDTALKEYKIDEKNFVVVMVTKPKAVSTPAPATTQQSAPASTTAVTSSTTTTVAQAPTPVPALAPTSTPASITPASATASSEPAPASAAKQEKPAEKPAETPVATSPTATDSTSGDSSRSNLFEDATSALVTGQSYENMVTEIMSMGYEREQVIAALRASFNNPDRAVEYLLMGIPGDRESQAVVDPPQAASTGAPQSSAVAAAAATTTATTTTTSSGGHPLEFLRNQPQFQQMRQIIQQNPSLLPALLQQIGRENPQLLQQISQHQEHFIQMLNEPVQEAGGQGGGGGGGSGGIAEAGSGHMNYIQVTPQEKEAIERLKALGFPEGLVIQAYFACEKNENLAANFLLQQNFDED
partner: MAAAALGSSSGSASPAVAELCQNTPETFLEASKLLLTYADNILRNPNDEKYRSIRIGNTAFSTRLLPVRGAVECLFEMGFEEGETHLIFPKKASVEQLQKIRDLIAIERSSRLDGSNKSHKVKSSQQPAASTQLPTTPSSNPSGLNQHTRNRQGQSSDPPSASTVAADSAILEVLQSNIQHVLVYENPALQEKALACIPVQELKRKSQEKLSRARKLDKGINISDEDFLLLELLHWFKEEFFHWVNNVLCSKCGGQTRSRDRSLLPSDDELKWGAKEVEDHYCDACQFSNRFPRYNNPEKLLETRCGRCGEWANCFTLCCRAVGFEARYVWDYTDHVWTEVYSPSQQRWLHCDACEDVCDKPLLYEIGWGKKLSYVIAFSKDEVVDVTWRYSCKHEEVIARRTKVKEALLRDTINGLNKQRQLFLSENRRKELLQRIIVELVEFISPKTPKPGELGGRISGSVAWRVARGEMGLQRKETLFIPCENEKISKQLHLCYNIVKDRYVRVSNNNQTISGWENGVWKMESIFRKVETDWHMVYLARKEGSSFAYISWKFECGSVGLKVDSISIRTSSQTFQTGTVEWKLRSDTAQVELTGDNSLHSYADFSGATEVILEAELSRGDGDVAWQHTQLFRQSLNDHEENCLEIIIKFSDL
B4: Transmembrane protein 187 (Homo sapiens), Q14656 (parent)
chain: MNPEWGQAFVHVAVAGGLCAVAVFTGIFDSVSVQVGYEHYAEAPVAGLPAFLAMPFNSLVNMAYTLLGLSWLHRGGAMGLGPRYLKDVFAAMALLYGPVQWLRLWTQWRRAAVLDQWLTLPIFAWPVAWCLYLDRGWRPWLFLSLECVSLASYGLALLHPQGFEVALGAHVVAAVGQALRTHRHYGSTTSATYLALGVLSCLGFVVLKLCDHQLARWRLFQCLTGHFWSKVCDVLQFHFAFLFLTHFNTHPRFHPSGGKTR
partner: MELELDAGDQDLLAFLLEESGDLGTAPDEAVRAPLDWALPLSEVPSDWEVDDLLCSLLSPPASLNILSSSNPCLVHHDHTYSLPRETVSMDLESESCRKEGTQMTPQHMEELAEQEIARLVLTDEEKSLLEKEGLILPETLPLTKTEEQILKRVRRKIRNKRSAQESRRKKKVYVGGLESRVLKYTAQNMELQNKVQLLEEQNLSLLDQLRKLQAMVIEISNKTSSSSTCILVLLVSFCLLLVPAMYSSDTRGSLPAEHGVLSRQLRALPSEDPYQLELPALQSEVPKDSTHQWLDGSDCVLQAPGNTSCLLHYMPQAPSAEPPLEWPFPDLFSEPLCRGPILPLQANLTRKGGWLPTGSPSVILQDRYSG
B5: Syntaxin-3 (Homo sapiens), Q13277 (parent)
chain: MKDRLEQLKAKQLTQDDDTDAVEIAIDNTAFMDEFFSEIEETRLNIDKISEHVEEAKKLYSIILSAPIPEPKTKDDLEQLTTEIKKRANNVRNKLKSMEKHIEEDEVRSSADLRIRKSQHSVLSRKFVEVMTKYNEAQVDFRERSKGRIQRQLEITGKKTTDEELEEMLESGNPAIFTSGIIDSQISKQALSEIEGRHKDIVRLESSIKELHDMFMDIAMLVENQGEMLDNIELNVMHTVDHVEKARDETKKAVKYQSQARKKLIIIIVLVVVLLGILALIIGLSVGLN
B6: von Hippel-Lindau disease tumor suppressor (Homo sapiens), P40337-2 (parent)
chain: MPRRAENWDEAEVGAEEAGVEEYGPEEDGGEESGAEESGPEESGPEELGAEEEMEAGRPRPVLRSVNSREPSQVIFCNRSPRVVLPVWLNFDGEPQPYPTLPPGTGRRIHSYRVYTLKERCLQVVRSLVKPENYRRLDIVRSLYEDLEDHPNVQKDLERLTQERIAHQRMGD
B7: Serine/threonine-protein kinase PAK 5 (Homo sapiens), Q9P286 (parent)
chain: MFGKKKKKIEISGPSNFEHRVHTGFDPQEQKFTGLPQQWHSLLADTANRPKPMVDPSCITPIQLAPMKTIVRGNKPCKETSINGLLEDFDNISVTRSNSLRKESPPTPDQGASSHGPGHAEENGFITFSQYSSESDTTADYTTEKYREKSLYGDDLDPYYRGSHAAKQNGHVMKMKHGEAYYSEVKPLKSDFARFSADYHSHLDSLSKPSEYSDLKWEYQRASSSSPLDYSFQFTPSRTAGTSGCSKESLAYSESEWGPSLDDYDRRPKSSYLNQTSPQPTMRQRSRSGSGLQEPMMPFGASAFKTHPQGHSYNSYTYPRLSEPTMCIPKVDYDRAQMVLSPPLSGSDTYPRGPAKLPQSQSKSGYSSSSHQYPSGYHKATLYHHPSLQSSSQYISTASYLSSLSLSSSTYPPPSWGSSSDQQPSRVSHEQFRAALQLVVSPGDPREYLANFIKIGEGSTGIVCIATEKHTGKQVAVKKMDLRKQQRRELLFNEVVIMRDYHHDNVVDMYSSYLVGDELWVVMEFLEGGALTDIVTHTRMNEEQIATVCLSVLRALSYLHNQGVIHRDIKSDSILLTSDGRIKLSDFGFCAQVSKEVPKRKSLVGTPYWMAPEVISRLPYGTEVDIWSLGIMVIEMIDGEPPYFNEPPLQAMRRIRDSLPPRVKDLHKVSSVLRGFLDLMLVREPSQRATAQELLGHPFLKLAGPPSCIVPLMRQYRHH

Variants of: B1
Settings: with ift25_human IFT25, Q9Y547
For A142V, the “effect of a mutation on the interaction” value was “disrupting interaction strength”.

Variants of: B2
Settings: with kt33b_human KRT33B
For D217Y, the “effect of a mutation on the interaction” value was “with no effect”. In the case of H266R, the “effect of a mutation on the interaction” value is reported as “with no effect”.

Variants of: B2
Settings: with KRT15, P19012
KRT15, P19012, sequence (P19012 whole entry): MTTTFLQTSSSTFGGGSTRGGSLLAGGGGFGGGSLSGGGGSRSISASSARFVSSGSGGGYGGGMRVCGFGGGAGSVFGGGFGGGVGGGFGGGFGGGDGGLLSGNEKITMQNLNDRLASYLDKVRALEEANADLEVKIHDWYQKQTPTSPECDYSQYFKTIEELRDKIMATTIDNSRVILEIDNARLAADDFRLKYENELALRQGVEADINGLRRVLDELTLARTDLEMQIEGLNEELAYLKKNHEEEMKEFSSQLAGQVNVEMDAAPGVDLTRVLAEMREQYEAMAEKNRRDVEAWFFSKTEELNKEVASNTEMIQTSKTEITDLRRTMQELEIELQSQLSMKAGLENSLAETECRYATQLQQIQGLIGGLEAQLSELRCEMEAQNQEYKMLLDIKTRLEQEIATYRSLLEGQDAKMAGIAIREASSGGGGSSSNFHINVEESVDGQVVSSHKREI
With D217Y the “effect of a mutation on the interaction” value was “with no effect”. R161Q was tested, and the “effect of a mutation on the interaction” value was “with no effect”. In the case of H266R, the “effect of a mutation on the interaction” value is reported as “with no effect”. With R213W the “effect of a mutation on the interaction” value was “with no effect”. With R30C the “effect of a mutation on the interaction” value was “with no effect”. For G86E, the “effect of a mutation on the interaction” value was “with no effect”.

Variants of: B3
Settings: with ngly1_human NGLY1, Q96IV0
P119H was tested, and the “effect of a mutation on the interaction” value was “with no effect”. In the case of T269R, the “effect of a mutation on the interaction” value is reported as “with no effect”.

Variants of: B4
Settings: with creb3_human CREB3, O43889
In the case of R138Q, the “effect of a mutation on the interaction” value is reported as “with no effect”.

Variants of: B5
Settings: with stx4_human STX4, Q12846
stx4_human STX4, Q12846, sequence (Q12846 whole entry): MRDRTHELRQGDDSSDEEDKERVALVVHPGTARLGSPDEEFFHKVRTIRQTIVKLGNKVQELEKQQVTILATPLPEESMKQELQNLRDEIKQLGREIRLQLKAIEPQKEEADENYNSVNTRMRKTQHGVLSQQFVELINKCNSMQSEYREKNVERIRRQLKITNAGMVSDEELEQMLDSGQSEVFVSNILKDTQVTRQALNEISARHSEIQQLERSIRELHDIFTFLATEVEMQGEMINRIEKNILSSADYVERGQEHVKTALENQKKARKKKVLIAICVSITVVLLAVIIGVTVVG
For H198Y, the “effect of a mutation on the interaction” value was “disrupting interaction strength”. With G276S the “effect of a mutation on the interaction” value was “with no effect”.

Variants of: B6
Settings: with mdfi_human MDFI
For F76S, the “effect of a mutation on the interaction” value was “disrupting interaction strength”. H167D was tested, and the “effect of a mutation on the interaction” value was “disrupting interaction strength”. S65W was tested, and the “effect of a mutation on the interaction” value was “with no effect”.

Variants of: B7
Settings: with uxt_human UXT
In the case of R335P, the “effect of a mutation on the interaction” value is reported as “with no effect”. With S511N the “effect of a mutation on the interaction” value was “with no effect”.

Variants of: B7
Settings: with crbn_human CRBN
With R335P the “effect of a mutation on the interaction” value was “with no effect”.

Variants of: B7
Settings: with gcp4_human TUBGCP4, Q9UGJ1
gcp4_human TUBGCP4, Q9UGJ1, sequence (Q9UGJ1 whole entry): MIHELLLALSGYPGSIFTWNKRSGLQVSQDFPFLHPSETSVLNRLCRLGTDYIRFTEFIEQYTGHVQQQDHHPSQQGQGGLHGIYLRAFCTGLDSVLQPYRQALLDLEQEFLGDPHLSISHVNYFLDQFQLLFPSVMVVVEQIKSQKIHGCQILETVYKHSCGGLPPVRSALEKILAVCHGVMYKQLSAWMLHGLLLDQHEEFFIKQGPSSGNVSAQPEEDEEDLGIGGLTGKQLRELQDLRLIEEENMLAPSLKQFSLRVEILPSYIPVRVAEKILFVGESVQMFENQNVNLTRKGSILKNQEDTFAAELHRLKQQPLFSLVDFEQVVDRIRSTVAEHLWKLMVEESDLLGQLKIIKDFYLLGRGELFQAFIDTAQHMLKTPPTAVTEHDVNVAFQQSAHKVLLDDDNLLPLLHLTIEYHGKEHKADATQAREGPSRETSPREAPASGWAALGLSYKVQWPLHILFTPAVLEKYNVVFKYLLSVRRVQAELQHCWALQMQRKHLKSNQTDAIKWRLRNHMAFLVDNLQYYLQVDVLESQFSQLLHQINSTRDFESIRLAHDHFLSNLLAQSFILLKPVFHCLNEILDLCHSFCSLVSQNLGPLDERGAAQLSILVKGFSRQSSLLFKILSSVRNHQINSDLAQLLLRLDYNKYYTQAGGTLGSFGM
With R335P the “effect of a mutation on the interaction” value was “with no effect”.

Variants of: B7
Settings: with fhl3_human FHL3, Q13643
fhl3_human FHL3, Q13643, sequence (Q13643 whole entry): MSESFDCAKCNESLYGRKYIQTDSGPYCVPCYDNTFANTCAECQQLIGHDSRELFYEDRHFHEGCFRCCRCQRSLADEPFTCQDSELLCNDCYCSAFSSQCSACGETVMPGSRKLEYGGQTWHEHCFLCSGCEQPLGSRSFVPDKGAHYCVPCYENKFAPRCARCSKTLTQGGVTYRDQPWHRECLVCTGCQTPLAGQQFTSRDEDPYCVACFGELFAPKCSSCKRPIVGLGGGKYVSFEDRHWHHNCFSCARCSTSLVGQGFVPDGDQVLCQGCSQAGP
With S511N the “effect of a mutation on the interaction” value was “with no effect”.

Variants of: B7
Settings: with pdli7_human PDLIM7, Q9NR12
pdli7_human PDLIM7, Q9NR12, sequence (Q9NR12 whole entry): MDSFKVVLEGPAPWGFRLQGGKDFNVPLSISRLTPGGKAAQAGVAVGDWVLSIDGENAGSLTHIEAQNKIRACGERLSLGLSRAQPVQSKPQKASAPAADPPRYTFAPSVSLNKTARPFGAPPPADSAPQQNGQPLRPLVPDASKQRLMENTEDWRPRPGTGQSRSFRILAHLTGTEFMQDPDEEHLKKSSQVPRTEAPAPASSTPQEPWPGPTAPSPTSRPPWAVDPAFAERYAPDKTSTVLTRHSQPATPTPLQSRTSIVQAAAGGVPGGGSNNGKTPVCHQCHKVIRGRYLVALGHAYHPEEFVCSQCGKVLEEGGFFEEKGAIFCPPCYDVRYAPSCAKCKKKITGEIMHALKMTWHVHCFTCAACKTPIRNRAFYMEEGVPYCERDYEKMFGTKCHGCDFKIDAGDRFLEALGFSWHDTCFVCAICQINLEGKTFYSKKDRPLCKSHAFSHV
With S511N the “effect of a mutation on the interaction” value was “with no effect”.

From IntAct's records for PubMed 31515488
